Entries after “also recorded” stand apart in the source; their conditions may differ.
Assays:
[1] = system: OsHSL1_F140H/L204F/F298L/I335A mutant T1 generation positive rice plants; experiment: Herbicide resistance test, over-expression in rice (stem-leaf treatment); type: in vivo; conditions: 2 g/mu and 8 g/mu, after 23 days of treatment
Method: (§1) Successfully overexpressed OsHSL1_F140H/L204F/F298L/I335A mutants and OsHSL1 wild type TO generation tissue culture seedlings were selected, cultivated and harvested, and then sown to offspring population T1 generation rice plants, and positive over-expression rice plants were identified.
(§2) OsHSL1_F140H/L204F/F298L/I335A mutant T1 generation positive rice plants and OsHSL1 wild-type T1 generation positive rice plants at 3 weeks of seedling age were treated with different concentrations of methyl-benquitrione aqueous solution on the Stem leaves, and OsHSL1 wild-type T1 generation positive rice plants as a control. The resistance of mutant OsHSL1_F140H/L204F/F298L/I335A to methyl-benquitrione was tested, and the specific results were shown in FIG. 1.

[2] = system: OsHSL1 wild type T1 generation positive rice plants; experiment: as above; type: in vivo; conditions: 2 g/mu and 8 g/mu
Method: as §1, §2

[3] = biological target: T1, rice OsHSL1 (SEQ ID NO: 1) mutant OsHSL1_F140H/L204F/F298L/I335A (Oryza sativa, UniProt A0A7G1K9G4, F140H/F298L/I335A/L204F); experiment: Enzyme kinetic parameters with HPPD inhibitors as substrate (HPLC); type: biochemical; conditions: compared with OsHSL1 wild type; close to the OsHIS1 wild type
T1 construct: isolated enzyme, HPLC assay
Source text: (§3) High Performance Liquid Chromatography (HPLC) was used to test OsHIS1 wild-type protein (the amino acid sequence of OsHIS1 wild-type is shown as SEQ ID NO 2, and the corresponding nucleotide sequence is shown as SEQ ID NO 21), the enzyme kinetic parameters of OsHSL1 wild-type protein and some OsHSL1 mutant proteins with higher reactivity and HPPD inhibitors, and the specific results are shown in Table 9-Table 12. […] Each sample was replicated three times. • e.

[4] = biological target: T2, rice OsHSL1 (SEQ ID NO: 1) mutant OsHSL1_I335F (Oryza sativa, UniProt A0A7G1K9G4, I335F); experiment: as above; type: biochemical; conditions: compared with OsHSL1 wild type
T2 construct: isolated enzyme, HPLC assay
T2 sequence (A0A7G1K9G4 entry or part of it I335F): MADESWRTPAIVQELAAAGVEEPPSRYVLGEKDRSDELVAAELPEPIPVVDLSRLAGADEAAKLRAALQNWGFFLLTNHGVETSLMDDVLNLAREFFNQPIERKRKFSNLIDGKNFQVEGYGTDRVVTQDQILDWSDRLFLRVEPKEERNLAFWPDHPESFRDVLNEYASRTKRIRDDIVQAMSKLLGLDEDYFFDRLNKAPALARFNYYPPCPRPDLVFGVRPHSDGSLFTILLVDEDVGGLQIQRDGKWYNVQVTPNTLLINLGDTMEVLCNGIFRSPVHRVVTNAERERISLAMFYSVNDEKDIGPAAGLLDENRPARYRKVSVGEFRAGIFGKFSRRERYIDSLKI
Source text: as §3

[5] = Catalytic activity of HSL proteins on HPPD inhibitors (HPLC, substrate consumption); type: biochemical; conditions: 30° C., 10 h, protein 0.5 mg/mL
Method: (§4) Each sample was replicated three times. • e.
(§5) Control: refers to the addition of inhibitors to the reaction system, but not the addition of enzymes, which is regarded as the substrate surplus when the inhibitor is not catalyzed.
(§6) Sample: in the enzyme reaction system, the same volume and the same concentration (50 μM) of the inhibitor was added, and the catalytic efficiency of the enzyme to the inhibitor was observed.
(§7) Catalytic efficiency=(1−(peak area of substrate in sample)/(peak area of substrate in control))×100%.

[6] = system: T1 generation positive rice plants; experiment: Herbicide resistance test of over-expression in rice (methyl-benquitrione stem-leaf treatment); type: in vivo; conditions: conclusion from FIG. 1
Method: as §1, §2
FIG. 1 is a graph showing the sensitivity of OsHSL1_F140H/L204F/F298L/I335A mutant T1 generation positive rice plants and OsHSL1 wild type T1 generation positive rice plants to the HPPD inhibitor methyl-benquitrione.

[7] = type: biochemical; conditions: substrate topramezone 50 μM; 30° C.; 10 h; protein 0.5 mg/mL
Method: as §4, §5, §6, §7

Which “sensitivity (plant colour)” value [1] does the source give for `Cc1ccccc1-n1c(=O)c2c(C)c(C(=O)C3=C(O)CCCC3=O)ccc2n(C)c1=O` [methyl-benquitrione] here?
Its value is “basically keep normal green”.

What about the albinism symptoms ([2]; after 16 days of treatment) of the same molecule?
Its albinism symptoms is “almost all have albinism symptoms”.

And the albino symptoms ([2]; after 23 days of treatment)?
Its albino symptoms is “albino symptoms become very obvious”.

And the “affinity and catalytic efficiency (in words)” value [3]?
Its value is “better affinity and catalytic efficiency”.

For `Cc1c(C(=O)c2cnn(C)c2O)ccc(S(C)(=O)=O)c1C1=NOCC1` [topramezone], which “catalytic efficiency (in words)” value [4] is on record?
Its value is “obviously superior”.

B1: OsHSL1_F140H/L204F/F298L/I335A: SEQ ID NO.1 with F140 to histidine, L204 to phenylalanine, F298 to leucine, I335 to alanine (protein)
chain: MADESWRTPAIVQELAAAGVEEPPSRYVLGEKDRSDELVAAELPEPIPVVDLSRLAGADEAAKLRAALQNWGFFLLTNHGVETSLMDDVLNLAREFFNQPIERKRKFSNLIDGKNFQVEGYGTDRVVTQDQILDWSDRLHLRVEPKEERNLAFWPDHPESFRDVLNEYASRTKRIRDDIVQAMSKLLGLDEDYFFDRLNKAPAFARFNYYPPCPRPDLVFGVRPHSDGSLFTILLVDEDVGGLQIQRDGKWYNVQVTPNTLLINLGDTMEVLCNGIFRSPVHRVVTNAERERISLAMLYSVNDEKDIGPAAGLLDENRPARYRKVSVGEFRAGIAGKFSRRERYIDSLKI
What does the source list for B1?
Catalytic efficiency (%) Compound A ([5]; substrate Compound A 50 μM): 97%; Catalytic efficiency (%) benzobicyclon technical ([5]; substrate benzobicyclon technical 50 μM): 100%; Catalytic efficiency (%) Mesotrione ([5]; substrate mesotrione 50 μM): 90%; Catalytic efficiency (%) methyl-benquitrione ([5]; substrate methyl-benquitrione 50 μM): 95%; Catalytic efficiency (%) pyraquinate technical ([5]; substrate pyraquinate technical 50 μM): 40%; Catalytic efficiency (%) tefuryltrione ([5]; substrate tefuryltrione 50 μM): 85%; Catalytic efficiency (%) tembotrione ([5]; substrate tembotrione 50 μM): 71%; resistance of over-expressing rice plants to methyl-benquitrione [6]: can improve the resistance; also recorded: obvious resistance; Catalytic efficiency (%) topramezone [7]: 4%

Reference: patent US20260043041A1, “HSL PROTEIN, GENE, VECTOR, CELL, COMPOSITION AND USE THEREOF, AND METHOD FOR IMPROVING HERBICIDE RESISTANCE OF CROPS” (CENTRAL CHINA NORMAL UNIVERSITY, priority 2022, published 2026)
